Percentage of binding data for four molecules are collected here from US20060122108A1.

Assay [1] has as its target BSA (UniProt P02769). Description: phage ELISA, control well (BSA blocking solution only); phage 1 ng/well; 100% = SEQ 5 phage at 710 ng/well.
In assay [2] the target is BSA (UniProt P02769). Description: phage ELISA, control well (BSA blocking solution only); phage 3 ng/well; 100% = SEQ 5 phage at 710 ng/well. (In general: ELISA stands for enzyme-linked immunosorbent assay.)
The target of assay [3] is BSA (UniProt P02769). Description: phage ELISA, control well (BSA blocking solution only); phage 18 ng/well; 100% = SEQ 5 phage at 710 ng/well.
Assay [4] addresses BSA (UniProt P02769). In words: phage ELISA, control well (BSA blocking solution only); phage 109 ng/well; 100% = SEQ 5 phage at 710 ng/well.
For assay [5], the target named is BSA (UniProt P02769). In words: phage ELISA, control well (BSA blocking solution only); phage 710 ng/well; 100% = SEQ 5 phage at 710 ng/well.
In assay [6] the target is BSA (UniProt P02769). Description: phage ELISA, control well (BSA blocking solution only); phage 0 ng/well (printed); 100% = SEQ 5 phage at 710 ng/well.
Assay [7] has as its target BSA (UniProt P02769). In words: phage ELISA, control well (BSA blocking solution only); phage 4 ng/well; 100% = SEQ 5 phage at 710 ng/well.
Assay [8] concerns the target BSA (UniProt P02769). Description: phage ELISA, control well (BSA blocking solution only); phage 22 ng/well; 100% = SEQ 5 phage at 710 ng/well.
For assay [9], the target named is BSA (UniProt P02769). In words: phage ELISA, control well (BSA blocking solution only); phage 132 ng/well; 100% = SEQ 5 phage at 710 ng/well.
Assay [10] concerns the target BSA (UniProt P02769). In words: phage ELISA, control well (BSA blocking solution only); phage 859 ng/well; 100% = SEQ 5 phage at 710 ng/well.
Assay [11] addresses BSA (UniProt P02769). Description: phage ELISA, control well (BSA blocking solution only); phage 20 ng/well; 100% = SEQ 5 phage at 710 ng/well.
In assay [12] the target is BSA (UniProt P02769). In words: phage ELISA, control well (BSA blocking solution only); phage 122 ng/well; 100% = SEQ 5 phage at 710 ng/well.
Assay [13] concerns the target BSA (UniProt P02769). Description: phage ELISA, control well (BSA blocking solution only); phage 796 ng/well; 100% = SEQ 5 phage at 710 ng/well.
The target of assay [14] is BSA (UniProt P02769). In words: phage ELISA, control well (BSA blocking solution only); phage 134 ng/well; 100% = SEQ 5 phage at 710 ng/well.
Assay [15] deals with BSA (UniProt P02769). In words: phage ELISA, control well (BSA blocking solution only); phage 870 ng/well; 100% = SEQ 5 phage at 710 ng/well.

Chain of BSA (P02769 25-607 limits assumed): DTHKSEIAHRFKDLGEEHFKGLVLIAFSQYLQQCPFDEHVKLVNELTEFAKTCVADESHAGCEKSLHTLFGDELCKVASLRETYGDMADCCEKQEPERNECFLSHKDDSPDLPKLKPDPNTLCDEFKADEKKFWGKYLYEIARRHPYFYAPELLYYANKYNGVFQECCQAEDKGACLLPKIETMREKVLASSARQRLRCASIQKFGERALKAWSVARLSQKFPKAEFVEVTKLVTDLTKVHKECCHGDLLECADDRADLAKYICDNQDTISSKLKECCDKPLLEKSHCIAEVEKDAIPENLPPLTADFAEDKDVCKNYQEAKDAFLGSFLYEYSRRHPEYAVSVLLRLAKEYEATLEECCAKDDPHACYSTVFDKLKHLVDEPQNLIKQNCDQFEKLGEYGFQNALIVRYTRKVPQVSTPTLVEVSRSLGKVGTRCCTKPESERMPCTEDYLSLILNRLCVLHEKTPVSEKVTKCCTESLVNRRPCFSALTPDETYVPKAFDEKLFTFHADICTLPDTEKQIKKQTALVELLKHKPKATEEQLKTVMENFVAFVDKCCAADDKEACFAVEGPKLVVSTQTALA

As for SWLQMPWALVRT (peptide, not shown: large carriers) [phage presenting SEQ ID NO: 5 (…)], the percentage of binding in the assay with BSA [1] was 0%; in the assay with BSA [2] it was 1%; in the assay with BSA [3], 1%; with BSA [4], 3%; with BSA [5], 5%; with BSA [6] it was 0%.

Take QIEPWFTPEDFP (peptide, not shown: large carriers) [phage presenting SEQ ID NO: 3 (…)]: the percentage of binding with BSA [1] was determined as 0%; with BSA [7], 1%; with BSA [8], 2%; in the assay with BSA [9], 5%; with BSA [10], 10%; with BSA [6], 0%.

In the case of LWQPPLIPGIDF (peptide, not shown: large carriers) [phage presenting SEQ ID NO: 2 (…)], the percentage of binding with BSA [1] is 1%; with BSA [2], 2%; in the assay with BSA [11] it was 4%; with BSA [12] it was 9%; in the assay with BSA [13], 12%; with BSA [6] it was 0%.

As to TRLAPLVFPLDY (peptide, not shown: large carriers) [phage presenting SEQ ID NO: 4 (…)], the percentage of binding in the assay with BSA [1] came to 0%; in the assay with BSA [7], 0%; with BSA [8] it was 1%; in the assay with BSA [14], 4%; with BSA [15] it was 10%; in the assay with BSA [6] it was 0%.
